In patent US20250197499A1 (STEALTH IO, published 2025):

T1: Recombinant human PD-L2-His tag (ACROBiosystems, #PD2-H5220) (human, UniProt Q9BQ51 20-219)
T1 construct: Bought protein; also called sPD-L2; human PD-L2-His tag protein; not shown: His tag
T1 sequence (looked up): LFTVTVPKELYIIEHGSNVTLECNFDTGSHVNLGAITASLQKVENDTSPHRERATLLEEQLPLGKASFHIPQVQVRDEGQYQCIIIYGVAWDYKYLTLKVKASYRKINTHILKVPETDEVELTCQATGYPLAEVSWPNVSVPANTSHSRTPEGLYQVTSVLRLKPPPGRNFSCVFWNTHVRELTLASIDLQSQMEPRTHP


Legend:
[1] = target: T1, Recombinant human PD-L2-His tag …; experiment: Octet RED96e; PD-L2-His loaded at 10 µg/ml on HIS1K sensor; sample 66,7 nM; negative control, response about zero, round fit values
Description: (§1) FIG. 4a is a graph of Octet binding studies on sPD-L2. Recombinant human PD-L2-His tag (ACROBiosystems, #PD2-H5220) was loaded to His-sensor (HIS1 K (Anti-Penta-His)) at 10 μg/ml and the binding of each construct was evaluated by Octet RED96e.
(§2) FIG. 4c is a graph depicting the KD values of anti-CD28/sPD-1 constructs on human PD-L2-His tag protein by Octet RED96e. The equilibrium dissociation constant (KD) is calculated as the ratio koff/kₒₙ (with koff:dissociation rates, and kₒₙ:association rates).
(§3) Anti-CD28/sPD-1 antibody fusion constructs were assessed for their ability to bind PD-1 ligands, PD-L1 and PD-L2 by Octet RED96e. Recombinant human PD-L1-His tag (ACROBiosystems, #PD1-H5229) or recombinant human PD-L2-His tag (ACROBiosystems, #PD2-H5220) were loaded to His-sensor (HIS1 K (Anti-Penta-His)) at 10 μg/ml. […] FIG. 3c is a summary of affinity (measured as Kd, M) for each construct on human PD-L1. […] FIG. 4c is a summary of affinity (measured as Kd, M) for each construct on human PD-L2.

[2] = target: T2, Recombinant human PD-L1-His tag (ACROBiosystems, #PD1-H5229) (human, UniProt Q9NZQ7 19-238); experiment: Octet RED96e; PD-L1-His loaded at 10 µg/ml on HIS1K sensor; sample 66,7 nM; negative control, response about zero, round fit values
T2 construct: Bought protein; also called sPD-L1; human PD-L1-His tag protein; not shown: His tag
Description: (§4) FIG. 3a is a graph of Octet binding studies on sPD-L1. Recombinant human PD-L1-His tag (ACROBiosystems, #PD1-H5229) was loaded to His-sensor (HIS1K (Anti-Penta-His)) at 10 μg/ml and the binding of each construct was evaluated by Octet RED96e.
(§5) FIG. 3c is a graph depicting the KD values of anti-CD28/sPD-1 constructs on human PD-L1-His tag protein by Octet RED96e. The equilibrium dissociation constant (KD) is calculated as the ratio koff/kₒₙ (with koff:dissociation rates, and kₒₙ:association rates).
as §3

[3] = target: T2, Recombinant human PD-L1-His tag …; experiment: Octet RED96e; PD-L1-His loaded at 10 µg/ml on HIS1K sensor; sample 378,8 nM
Description: as §4, §5, §3

[4] = target: T1, Recombinant human PD-L2-His tag …; experiment: Octet RED96e; PD-L2-His loaded at 10 µg/ml on HIS1K sensor; sample 75,8 nM
Description: as §1, §2, §3

[5] = target: T1, Recombinant human PD-L2-His tag …; experiment: Octet RED96e; PD-L2-His loaded at 10 µg/ml on HIS1K sensor; sample 378,8 nM
Description: as §1, §2, §3

[6] = target: T2, Recombinant human PD-L1-His tag …; experiment: Octet RED96e; PD-L1-His loaded at 10 µg/ml on HIS1K sensor; sample 75,8 nM
Description: as §4, §5, §3

[7] = target: T1, Recombinant human PD-L2-His tag …; experiment: Octet RED96e; PD-L2-His loaded at 10 µg/ml on HIS1K sensor; sample 55,6 nM
Description: as §1, §2, §3

[8] = target: T2, Recombinant human PD-L1-His tag …; experiment: Octet RED96e; PD-L1-His loaded at 10 µg/ml on HIS1K sensor; sample 277,8 nM
Description: as §4, §5, §3

[9] = target: T1, Recombinant human PD-L2-His tag …; experiment: Octet RED96e; PD-L2-His loaded at 10 µg/ml on HIS1K sensor; sample 277,8 nM
Description: as §1, §2, §3

[10] = target: T2, Recombinant human PD-L1-His tag …; experiment: Octet RED96e; PD-L1-His loaded at 10 µg/ml on HIS1K sensor; sample 55,6 nM
Description: as §4, §5, §3

Binder | Kd [3] | koff [3] | kon [3] | Kd [4] | koff [4] | kon [4] | Kd [5] | koff [5] | kon [5] | Kd [6] | koff [6] | kon [6] | further results
Monoclonal anti-CD28 (9.3) mAb (GeneTex, #GTX14664) (antibody, V domains shown, Bought 9.3 mAb without sPD-1 fusion; also called monoclonal antibody 9.3) VH: EVKLQQSGPGLVTPSQSLSITCTVSGFSLSDYGVHWVRQSPGQGLEWLGVIWAGGGTNYNSALMSRKSISKDNSKSQVFLKMNSLQADDTAVYYCARDKGYSYYYSMDYWGQGTSVTVSS VL: DIELTQSPASLAVSLGQRATISCRASESVEYYVTSLMQWYQQKPGQPPKLLIFAASNVESGVPARFSGSGSGTNFSLNIHPVDEDDVAMYFCQQSRKVPYTFGGGTKLEIK |  |  |  |  |  |  |  |  |  |  |  |  | Kd [1]: 100 nM; koff [1]: 0.001 s⁻¹; kon [1]: 10000 M⁻¹ s⁻¹; Kd [2]: 100 nM; koff [2]: 0.001 s⁻¹; kon [2]: 10000 M⁻¹ s⁻¹
monovalent anti-CD28/sPD-1 wt (bispecific antibody, also called Monovalent anti-CD28/sPD-1 Wild type structure; bispecific protein complex A:B-C-X:C'-Y) light: DIELTQSPASLAVSLGQRATISCRASESVEYYVTSLMQWYQQKPGQPPKLLIFAASNVESGVPARFSGSGSGTNFSLNIHPVDEDDVAMYFCQQSRKVPYTFGGGTKLEIKRTVAAPSVFIFPPSDEQLKSGTASVVCLLNNFYPREAKVQWKVDNALQSGNSQESVTEQDSKDSTYSLSSTLTLSKADYEKHKVYACEVTHQGLSSPVTKSFNRGEC heavy: not shown not shown | 35.1 nM | 0.0122 s⁻¹ | 348000 M⁻¹ s⁻¹ | 10 nM | 0.00283 s⁻¹ | 282000 M⁻¹ s⁻¹ | 23.7 nM | 0.00318 s⁻¹ | 134000 M⁻¹ s⁻¹ | 23.3 nM | 0.013 s⁻¹ | 559000 M⁻¹ s⁻¹ | 
bivalent anti-CD28/sPD-1 mut (bispecific antibody, human IgG1, kappa, The sPD-1 fragments carry G124S, K131Y and A132I; also called Bi Mut; Bivalent anti-CD28/sPD-1 Mutated structure) light: DIELTQSPASLAVSLGQRATISCRASESVEYYVTSLMQWYQQKPGQPPKLLIFAASNVESGVPARFSGSGSGTNFSLNIHPVDEDDVAMYFCQQSRKVPYTFGGGTKLEIKRTVAAPSVFIFPPSDEQLKSGTASVVCLLNNFYPREAKVQWKVDNALQSGNSQESVTEQDSKDSTYSLSSTLTLSKADYEKHKVYACEVTHQGLSSPVTKSFNRGEC heavy: EVKLQQSGPGLVTPSQSLSITCTVSGFSLSDYGVHWVRQSPGQGLEWLGVIWAGGGTNYNSALMSRKSISKDNSKSQVFLKMNSLQADDTAVYYCARDKGYSYYYSMDYWGQGTSVTVSSASTKGPSVFPLAPSSKSTSGGTAALGCLVKDYFPEPVTVSWNSGALTSGVHTFPAVLQSSGLYSLSSVVTVPSSSLGTQTYICNVNHKPSNTKVDKRVEPKSCDKTHTCPPCPAPEFEGGPSVFLFPPKPKDTLMISRTPEVTCVVVDVSHEDPEVKFNWYVDGVEVHNAKTKPREEQYNSTYRVVSVLTVLHQDWLNGKEYKCKVSNKALPASIEKTISKAKGQPREPQVYTLPPSREEMTKNQVSLTCLVKGFYPSDIAVEWESNGQPENNYKTTPPVLDSDGSFFLYSKLTVDKSRWQQGNVFSCSVMHEALHNHYTQKSLSLSPGGGGSGGGGSGGGGSLDSPDRPWNPPTFSPALLVVTEGDNATFTCSFSNTSESFVLNWYRMSPSNQTDKLAAFPEDRSQPGQDCRFRVTQLPNGRDFHMSVVRARRNDSGTYLCSAISLAPYIQIKESLRAELRVTERRAEVPTAHPSPSPRPAGQFQ |  |  |  |  |  |  |  |  |  |  |  |  | Kd [7]: 0.774 nM; koff [7]: 0.0003 s⁻¹; kon [7]: 387000 M⁻¹ s⁻¹; Kd [8]: 1.65 nM; koff [8]: 0.00055 s⁻¹; kon [8]: 334000 M⁻¹ s⁻¹; Kd [9]: 0.883 nM; koff [9]: 0.000153 s⁻¹; kon [9]: 174000 M⁻¹ s⁻¹; Kd [10]: 1.21 nM; koff [10]: 0.000698 s⁻¹; kon [10]: 578000 M⁻¹ s⁻¹
monovalent anti-CD28/sPD-1 mut (bispecific antibody, The sPD-1 fragments carry G124S, K131Y and A132I (numbering of full-length human PD-1); also called Mono Mut; Monovalent anti-CD28/sPD-1 Mutated structure) light: DIELTQSPASLAVSLGQRATISCRASESVEYYVTSLMQWYQQKPGQPPKLLIFAASNVESGVPARFSGSGSGTNFSLNIHPVDEDDVAMYFCQQSRKVPYTFGGGTKLEIKRTVAAPSVFIFPPSDEQLKSGTASVVCLLNNFYPREAKVQWKVDNALQSGNSQESVTEQDSKDSTYSLSSTLTLSKADYEKHKVYACEVTHQGLSSPVTKSFNRGEC heavy: EVKLQQSGPGLVTPSQSLSITCTVSGFSLSDYGVHWVRQSPGQGLEWLGVIWAGGGTNYNSALMSRKSISKDNSKSQVFLKMNSLQADDTAVYYCARDKGYSYYYSMDYWGQGTSVTVSSASTKGPSVFPLAPSSKSTSGGTAALGCLVKDYFPEPVTVSWNSGALTSGVHTFPAVLQSSGLYSLSSVVTVPSSSLGTQTYICNVNHKPSNTKVDKRVEPKSCDKTHTCPPCPAPEFEGGPSVFLFPPKPKDTLMISRTPEVTCVVVDVSHEDPEVKFNWYVDGVEVHNAKTKPREEQYNSTYRVVSVLTVLHQDWLNGKEYKCKVSNKALPASIEKTISKAKGQPREPQVYTLPPSREEMTKNQVSLTCLVKGFYPSDIAVEWESNGQPENNYKTTPPVLDSDGSFFLYSKLTVDKSRWQQGNVFSCSVMHEALHNHYTQKSLSLSPGGGGSGGGGSGGGGSLDSPDRPWNPPTFSPALLVVTEGDNATFTCSFSNTSESFVLNWYRMSPSNQTDKLAAFPEDRSQPGQDCRFRVTQLPNGRDFHMSVVRARRNDSGTYLCSAISLAPYIQIKESLRAELRVTERRAEVPTAHPSPSPRPAGQFQ DKTHTCPPCPAPEFEGGPSVFLFPPKPKDTLMISRTPEVTCVVVDVSHEDPEVKFNWYVDGVEVHNAKTKPREEQYNSTYRVVSVLTVLHQDWLNGKEYKCKVSNKALPASIEKTISKAKGQPREPQVYTLPPSREEMTKNQVSLTCLVKGFYPSDIAVEWESNGQPENNYKTTPPVLDSDGSFFLYSKLTVDKSRWQQGNVFSCSVMHEALHNHYTQKSLSLSPGGGGSGGGGSGGGGSLDSPDRPWNPPTFSPALLVVTEGDNATFTCSFSNTSESFVLNWYRMSPSNQTDKLAAFPEDRSQPGQDCRFRVTQLPNGRDFHMSVVRARRNDSGTYLCSAISLAPYIQIKESLRAELRVTERRAEVPTAHPSPSPRPAGQFQ | 2.17 nM | 0.00061 s⁻¹ | 281000 M⁻¹ s⁻¹ | 1.05 nM | 0.000342 s⁻¹ | 324000 M⁻¹ s⁻¹ | 1.33 nM | 0.000183 s⁻¹ | 138000 M⁻¹ s⁻¹ | 1.57 nM | 0.00083 s⁻¹ | 528000 M⁻¹ s⁻¹ | 
